Measured values from PMC9017650.

What was measured:
[1] = target: human FcγRIIIa receptor, V158 variants (human)
[2] = target: recombinant human TNFα (human) (UniProt P01375); assay: SPR
Golimumab A (human) = assay: SPR; Biacore T200; anti-human Fc antibody immobilised on a CM5 chip, golimumab captured, TNFα as analyte at five concentrations (7.81–125 nM), 30 μL/min, 25°C, 1:1 Langmuir model, KD = Kd/Ka
Golimumab B (human) = assay: as above

Row | Substance | ADCC reporter gene assay, EC50 (Jurkat NFAT-luciferase cells with FcγRIIIa V158 as effector cells, CHO-K1/hmTNFα as target cells) [1] [µg/mL] | koff [2] [s⁻¹] | other results
1 | Golimumab B (antibody) | 0.152 | – | –
2 | Golimumab B (from UniProt P01857) | – | 0.000149 | –
3 | recombinant human TNFα (from UniProt P01375 77-233) (ligand) | – | – | Kd (Golimumab A (human)): 0.0124 nM; Kd (Golimumab B (human)): 0.0106 nM

The next lines start with results.

Row | ADCC reporter gene assay, EC50 (Jurkat NFAT-luciferase cells with FcγRIIIa V158 as effector cells, CHO-K1/hmTNFα as target cells) [1] [µg/mL] | koff [2] [s⁻¹] | Substance | other results
4 | 0.15 | – | Golimumab A (antibody) | –
5 | – | 0.000164 | Golimumab A (from UniProt P01857) | –
